Results as given in US20260201068A1 (UNIVERSIT DE GEN VE, published 2026).

What was measured:
[1] = biological target: T1, human PTPRZ1 extracellular portion (domains 1 plus 2) knocked in and shown on Ge518_PTPRZ1-KI cells (human, UniProt P23471 25-413, limits assumed); assay: flow cytometry on Ge518_PTPRZ1-KI cells, scFv conjugated to rabbit Fc, anti-rabbit IgG AlexaFluo488
T1 construct: domain: extracellular portion (domains 1 plus 2); parental Ge518 has low PTPRZ1 expression; also called receptor-type tyrosine-protein phosphatase zeta
T1 sequence (P23471 25-413 limits assumed): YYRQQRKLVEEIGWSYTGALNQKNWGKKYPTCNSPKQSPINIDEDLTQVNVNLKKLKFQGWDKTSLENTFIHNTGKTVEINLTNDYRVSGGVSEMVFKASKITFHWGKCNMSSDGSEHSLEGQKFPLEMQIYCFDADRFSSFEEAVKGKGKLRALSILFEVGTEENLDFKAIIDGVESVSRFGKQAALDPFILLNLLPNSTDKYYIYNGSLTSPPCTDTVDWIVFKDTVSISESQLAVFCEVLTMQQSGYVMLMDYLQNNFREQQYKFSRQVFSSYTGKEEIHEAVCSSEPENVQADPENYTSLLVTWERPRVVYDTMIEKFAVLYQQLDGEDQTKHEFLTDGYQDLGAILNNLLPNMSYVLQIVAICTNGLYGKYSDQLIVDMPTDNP
Text: The GBM cell line Ge518, obtained in our lab from a patient tumor resection, was used as a tumor model to evaluate CAR T cell efficacy. As PTPRZ1 expression was low in these cells, the antigen was overexpressed by introducing (knock-in) an extracellular portion (domains 1 plus 2) of the human PTPRZ1 molecule under the EF1a promoter, using a 3rd generation LV vector with puromycin selection.

[2] = biological target: human PTPRZ1 extracellular portion (domains 1 plus 2) knocked in and shown on Ge518_PTPRZ1-KI cells (human) (UniProt P23471); assay: cell-based or functional assay
Chain of human PTPRZ1 extracellular portion (domains 1 plus 2) knocked in and shown on Ge518_PTPRZ1-KI cells (human) (P23471 25-413 limits assumed): as above

Row | level of recognition (percent, flow cytometry) [1] | Binder | killing of Ge518 PTPRZ1-KI target cells by CAR T cells, E:T 3:1 [2]
1 | ≥ 80% | anti-PTPRZ1 scFv RRB471 conjugated to a rabbit Fc (Fc fusion, scFv conjugated to a rabbit Fc for flow cytometry; not shown: rabbit Fc) scFv: MAEVQLVESGGGLVQPGGSLRLSCAASGFTFSSYSMNWVRQAPGKGLEWVSYISSSSSTIYYADSVKGRFTISRDNAKNSLYLQMNSLRAEDTAVYYCARPGYGDFPGAFDIWGQGTLVTVSSGGGGSGGGGSGGGGSTQSALTQPASVSGSPGQSITISCTGTSSDVGGYNYVSWYQQHPGKAPKLMIYEVSNRPSGVSNRFSGSKSGNTASLTISGLQAEDEADYYCSSYDWATYGSVFGGGTKLTVLGAA | 
2 | ≥ 80% | anti-PTPRZ1 scFv RRB476 conjugated to a rabbit Fc (Fc fusion, scFv conjugated to a rabbit Fc for flow cytometry; also called scFv 476; not shown: rabbit Fc) scFv: MAQVQLVESGGGVVQPGRSLRLSCAASGFTFSSYAMHWVRQAPGKGLEWVAVISYDGSNKYYADSVKGRFTISRDNSKNTLYLQMNSLRAEDTAVYYCARDQDDSSDAFDIWGQGTLVTVSSGGGGSGGGGSGGGGSTQSVLTQPPSVSAAPGQKVTISCSGSSSNIGNNYVSWYQQLPGTAPKLLIYDNNKRPSGIPDRFSGSKSGTSATLGITGLQTGDEADYYCGTWDYKVSRLVFGGGTKLTVLGAA | 

Second part, the binder before the results:

Row | Binder | level of recognition (percent, flow cytometry) [1] | killing of Ge518 PTPRZ1-KI target cells by CAR T cells, E:T 3:1 [2]
3 | anti-PTPRZ1 scFv RRB469 conjugated to a rabbit Fc (Fc fusion, Flow cytometry was done with the scFvs conjugated to a rabbit Fc, detected with anti-rabbit IgG AlexaFluo488; also called scFv 469; not shown: rabbit Fc) scFv: MAQVQLVESGGGVVQPGRSLRLSCAASGFTFSSYAMHWVRQAPGKGLEWVAVISYDGSNKYYADSVKGRFTISRDNSKNTLYLQMNSLRAEDTAVYYCARGSGYSYGPGYDAFDIWGQGTLVTVSSGGGGSGGGGSGGGGSTNFMLTQPHSVSESPGKTVTISCTRSSGSIASNYVQWYQQRPGSSPTTVIYEDNQRPSGVPDRFSGSIDSSSNSASLTISGLKTEDEADYYCQSWDPVFGVFGGGTKLTVLGAA | ≥ 80% | 
4 | anti-PTPRZ1 scFv RRB473 conjugated to a rabbit Fc (Fc fusion, scFv conjugated to a rabbit Fc for flow cytometry; also called scFv 473; not shown: rabbit Fc) scFv: MAQVQLVESGGGVVQPGRSLRLSCAASGFTFSSYAMHWVRQAPGKGLEWVAVISYDGSNKYYADSVKGRFTISRDNSKNTLYLQMNSLRAEDTAVYYCARDQDDSSDAFDIWGQGTLVTVSSGGGGSGGGGSGGGGSTQSVLTQPPSVSAAPGQKVTISCSGSSSNIGNNYVSWYQQLPGTAPKLLIYDNNKRPSGIPDRFSGSKSGTSATLGITGLQTGDEADYYCGTYDYIATRAVFGGGTKLTVLGAA | ≥ 80% | 
5 | anti-PTPRZ1 471_28z chimeric antigen receptor (on RNA CAR T cells) (protein, part only; not given: CD3zeta signalling domain, part only) chain, part: MAEVQLVESGGGLVQPGGSLRLSCAASGFTFSSYSMNWVRQAPGKGLEWVSYISSSSSTIYYADSVKGRFTISRDNAKNSLYLQMNSLRAEDTAVYYCARPGYGDFPGAFDIWGQGTLVTVSSGGGGSGGGGSGGGGSTQSALTQPASVSGSPGQSITISCTGTSSDVGGYNYVSWYQQHPGKAPKLMIYEVSNRPSGVSNRFSGSKSGNTASLTISGLQAEDEADYYCSSYDWATYGSVFGGGTKLTVLGAAESKYGPPCPPCPFWVLVVVGGVLACYSLLVTVAFIIFWVRSKRSRGGHSDYMNMTPRRPGPTRKHYQPYAPPRDFAAYRS |  | 80%
